Measurements reported in paper PMC4919205.

Target: TRPV6_(CysKO) D34C-R631C double mutant (rat) (UniProt Q9R186)
Assay: cross-linking

stoichiometry N: 4
Substance: TRPV6_(CysKO) D34C-R631C double mutant (from UniProt Q9R186 1-668) (natural protein)
